The source of these data is publication PMC6908617, “Evolutionary conservation of the intrinsic disorder-based Radical-Induced Cell Death1 hub interactome” (Scientific Reports, 2019).

Where two headings read alike, the source gives them in different places.

Sequences and labels used below:
B1: AtDREB2A(244–272;L264I) (peptide, UniProt O82132 244-272, looked up)
chain: WPNDVDQSHLDSSDMFDVDEILRDLNGDD
notes: DREB2A, Arabidopsis thaliana, AT5G05410, residues 244-272 with Leu264 to Ile; source: mutation by QuikChange
B2: ANAC087(315–335) (peptide, UniProt Q9FK44 315-335, looked up)
chain: MVNGSKSYEDLCDLRGDLWDF
notes: NAC transcription factor ANAC087, Arabidopsis thaliana, AT5G18270, residues 315-335
B3: ANAC013(254–274;L266I) (peptide, UniProt F4IED2 254-274, looked up)
chain: NLEEDMYLEINDIMEPEPEPT
notes: ANAC013, Arabidopsis thaliana, AT1G32870, residues 254-274 with Leu266 to Ile; Probably made from the ANAC013(254–274) plasmid of previous work and purified in the same way; also called AtANAC013(254–274;L266I)
B4: AtRCD1-RST(499–572) (domain or fragment, Arabidopsis thaliana, UniProt Q8RY59 499-572, looked up)
chain: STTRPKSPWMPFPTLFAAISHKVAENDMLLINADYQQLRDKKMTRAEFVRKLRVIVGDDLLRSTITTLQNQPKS
notes: RST domain of Radical-Induced Cell Death1 (RCD1), Arabidopsis thaliana, residues 499-572; also called AtRST(499–572); Arabidopsis RST domain
B5: AtDREB2A(244–272) (peptide, UniProt O82132 244-272, looked up)
chain: WPNDVDQSHLDSSDMFDVDELLRDLNGDD

The target in assay [1] is RCD1 RST (Arabidopsis thaliana) (UniProt Q8RY59). Conditions: cited from earlier work.
Assay [2] deals with ANAC013(254–274) (Arabidopsis thaliana) (UniProt F4IED2). Put plainly: ITC; RST domain in the syringe (100–300 µM) titrated into the TF fragment in the cell (10–30 µM); 25 °C; 50 mM Hepes, pH 7.4, 100 mM NaCl; one set of sites model. A general note: In ITC the heat of successive injections is recorded.
Sequence of ANAC013(254–274) (Arabidopsis thaliana) (F4IED2 254-274): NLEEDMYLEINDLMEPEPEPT
Assay [3] addresses GmDREB2A(273–290) (Glycine max (soybean)). The assay is described as above.
The target in the assay “AtDREB2A(244–272)” is B5. The assay is described as above.
For assay [4], the target named is RCD1 499-572 (Arabidopsis thaliana) (UniProt Q8RY59). As to the kind of experiment: ITC. Particulars: cited from earlier work.
Assay [5] addresses B4. Put plainly: ITC; RST domain in the syringe (100–300 µM) titrated into the TF fragment in the cell (10–30 µM); 25 °C; 50 mM Hepes, pH 7.4, 100 mM NaCl; one set of sites model. Particulars: both partners purified.
Assay [6] concerns the target B4. Put plainly: ITC; ANAC087(315–335) in the syringe (100–300 µM) titrated into the RST domain in the cell (10–30 µM); 25 °C; 50 mM Hepes, pH 7.4, 100 mM NaCl; one set of sites model. Particulars: both partners purified.
The target in assay [7] is HvDRF1.1(255–273) (Hordeum vulgare (barley)). As to the kind of experiment: ITC; RST domain in the syringe (100–300 µM) titrated into the TF fragment in the cell (10–30 µM); 25 °C; 50 mM Hepes, pH 7.4, 100 mM NaCl; one set of sites model.
For the next assay, the target named is T1, HvNAC013(176–346) (Hordeum vulgare (barley), UniProt F2EJH0 176-346).
T1 construct: HvNAC013, barley (Hordeum vulgare) NAC transcription factor, ID AK376297.1, residues 176-346; also called barley ortholog of ANAC046; source: plasmid from previous work
T1 sequence (looked up): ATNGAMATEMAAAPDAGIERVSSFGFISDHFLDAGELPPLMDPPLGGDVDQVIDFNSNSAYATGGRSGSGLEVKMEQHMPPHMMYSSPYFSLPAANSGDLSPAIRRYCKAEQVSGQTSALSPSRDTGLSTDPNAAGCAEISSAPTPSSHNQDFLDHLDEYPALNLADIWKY
The assay is described as above. Conditions: both partners purified.

In general, Kd refers to the constant that tells how readily two partners part at equilibrium. ANAC046 (from UniProt Q9SQQ6): the dissociation constant Kd in assay [1] was 609 nM.
In general, stoichiometry N refers to the number of molecules, sites or subunits per partner or assembly. “GmRCD1-RST(483–583) (domain or fragment)”: in [2], the Kd was determined as 526 nM, the dH was -8.77 kcal/mol and the stoichiometry N is 0.94. In assay [3], the equilibrium dissociation constant (Kd) was 2590 nM, the dH was -5.62 kcal/mol and the stoichiometry N came to 0.98. In the assay with AtDREB2A(244–272), this molecule returned a Kd of 320 nM, a dH of -9.25 kcal/mol and a stoichiometry N of 0.95.
Take ANAC013 254-274 (from UniProt F4IED2): the Kd in assay [4] was 9 nM.
As for B1, in the assay with AtRCD1-RST(499–572) [5], binding was characterised by a dissociation constant (Kd) of 39 nM.
Consider B2, for which, in the assay with AtRCD1-RST(499–572) [6], the dissociation constant (Kd) stood at 1750 nM, the dH was -3.8 kcal/mol and the “stoichiometry N” value was 0.93.
Turning to B3, binding in the assay with AtRCD1-RST(499–572) [5] was characterised by a dissociation constant (Kd) of 223 nM.
Consider B4, for which the equilibrium dissociation constant (Kd) in [7] stood at 450 nM; in assay [3], 397 nM; with HvNAC013(176–346), 343 nM. For the same molecule, the dH is -11.6 kcal/mol in assay [7], -8.34 kcal/mol in assay [3], -1.08 kcal/mol with HvNAC013(176–346) and -15.1 kcal/mol with AtDREB2A(244–272) (both partners purified). The “stoichiometry N” value with HvNAC013(176–346) worked out at 1.03; with AtDREB2A(244–272) (both partners purified), 0.9.
B5 displayed a dissociation constant (Kd) with AtRCD1-RST(499–572) [5] of 16 nM.
